Data as given in patent US20260250318A1, “COMPOSITIONS AND METHODS FOR CROSSING THE BLOOD BRAIN BARRIER” (VOYAGER THERAPEUTICS, INC., priority 2022, published 2026).
Numbering of substitutions follows the chain as printed. Like-named read-outs stand apart in the source and are kept apart here.

B1: TTM-001: AAV9 capsid variant comprising SPHSKA (SEQ ID NO: 941) in loop IV (protein)
chain 1: MAADGYLPDWLEDNLSEGIREWWALKPGAPQPKANQQHQDNARGLVLPGYKYLGPGNGLDKGEPVNAADAAALEHDKAYDQQLKAGDNPYLKYNHADAEFQERLKEDTSFGGNLGRAVFQAKKRLLEPLGLVEEAAKTAPGKKRPVEQSPQEPDSSAGIGKSGAQPAKKRLNFGQTGDTESVPDPQPIGEPPAAPSGVGSLTMASGGGAPVADNNEGADGVGSSSGNWHCDSQWLGDRVITTSTRTWALPTYNNHLYKQISNSTSGGSSNDNAYFGYSTPWGYFDFNRFHCHFSPRDWQRLINNNWGFRPKRLNFKLFNIQVKEVTDNNGVKTIANNLTSTVQVFTDSDYQLPYVLGSAHEGCLPPFPADVFMIPQYGYLTLNDGSQAVGRSSFYCLEYFPSQMLRTGNNFQFSYEFENVPFHSSYAHSQSLDRLMNPLIDQYLYYLSKTINGSGSPHSKAQNQQTLKFSVAGPSNMAVQGRNYIPGPSYRQQRVSTTVTQNNNSEFAWPGASSWALNGRNSLMNPGPAMASHKEGEDRFFPLSGSLIFGKQGTGRDNVDADKVMITNEEEIKTTNPVATESYGQVATNHQSAQAQAQTGWVQNQGILPGMVWQDRDVYLQGPIWAKIPHTDGNFHPSPLMGGFGMKHPPPQILIKNTPVPADPPTAFNKDKLNSFITQYSTGQVSVEIEWELQKENSKRWNPEIQYTSNYYKSNNVEFAVNTEGVYSEPRPIGTRYLTRNL
chain 2: GSGSPHSKAQNQQT
B2: TTM-002: AAV9 capsid variant comprising HDSPHK (SEQ ID NO: 2) in loop IV (protein)
chain 1: B1 chain 1 with S454H, G455D, S459K, K460S, A461G
chain 2: GHDSPHKSGQNQQT

Columns and labels:
His-tagged ALPL = biological target: T1, His-tagged ALPL (Homo sapiens, UniProt P05186); assay: SPR (Biacore 8K) binding of capsids to ALPL; details: for binding to ALPL by SPR: AAV 0.0625 to 1 nM over ALPL, or ALPL 15.625 to 250 nM over capsid
T1 sequence (P05186 18-501): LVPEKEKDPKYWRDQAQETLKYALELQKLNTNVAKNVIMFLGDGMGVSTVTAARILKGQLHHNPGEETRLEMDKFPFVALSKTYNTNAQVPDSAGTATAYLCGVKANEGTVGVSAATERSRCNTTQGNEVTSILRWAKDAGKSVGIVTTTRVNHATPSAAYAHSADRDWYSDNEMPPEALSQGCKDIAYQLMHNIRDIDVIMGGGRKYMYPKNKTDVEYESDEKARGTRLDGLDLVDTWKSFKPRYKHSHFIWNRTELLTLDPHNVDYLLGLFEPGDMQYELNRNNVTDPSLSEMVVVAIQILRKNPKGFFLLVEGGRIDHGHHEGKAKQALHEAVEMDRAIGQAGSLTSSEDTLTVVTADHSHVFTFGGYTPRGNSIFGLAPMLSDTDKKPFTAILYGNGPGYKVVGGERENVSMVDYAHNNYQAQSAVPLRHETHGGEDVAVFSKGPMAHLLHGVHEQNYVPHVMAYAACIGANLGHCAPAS
Description: Direct binding and specific interaction of the TTM-002 capsid variant and the AAV9 capsid control to ALPL was measured by Surface Plasmon Resonance (SPR) on a Biacore 8K instrument. His-tagged ALPL was first captured on a CM5 sensor chip pre-immobilized with anti-His antibody by passing 5 μg/ml of ALPL for 240 seconds (FIGS. 2A-2B). AAV9 or TTM-002 and buffer were then passed over ALPL to monitor rates of association and dissociation, respectively. […] The surface was regenerated using two pulses of 10 mM glycine pH 1.7 for 30 seconds. A flow rate of 30 μl/min was used for all steps and the running buffer used was PBS-P+. In a second experiment, the AAV9 control or TTM-002 capsid variant were immobilized on the CM5 sensor chip (FIGS. 2C-2D). His-tagged ALPL and buffer were then passed over the AAV9 control or TTM-002 capsid variant to monitor rates of association and dissociation. The concentration of ALPL used was from 15.625 to 250 nM (e.g., 15.625 nM, […], 62.5 nM, 125 nM, and 250 nM; FIGS. 2C-2D).
For this experiment, the density of TTM-002 on the chip was approximately 6300RU.
Additional experiments were performed varying the density of the TTM-002 capsid variant on the chip. His-tagged ALPL and buffer were then passed over the AAV9 control or TTM-002 capsid variant to monitor rates of association and dissociation.

[1] = tested on: HEK 293T cells transfected with pCMV6 negative control; type: cell-based; details: for Luciferase Activity (fold change relative to pCMV6 transfected cells): pCMV6 transfected cells (negative control, reference); for Luciferase Activity (RLU): Table 30, pCMV6 transfected cells
Description: Briefly, a transduction assay was performed in that HEK 293T cells were transfected via calcium phosphate transfection with a plasmid expressing ALPL, an AAVR positive control, or a pCMV6 negative control (250 ng or 500 ng of plasmid). AAVR is a universal AAV entry factor involved in AAV transduction. […] At 24-hours post-transduction, GFP expression and luciferase activity were measured to quantify and observe AAV cellular transduction. […] The TTM-002, TTM-006, TTM-018, and TTM-019 capsid variants all comprised the SPH motif immediately subsequent to position 455, numbered relative to SEQ ID NO: 138 and a positive residue in one of the next three residues subsequent to the SPH motif.
Three isoforms of ALPL exist, isoform 1 (Alkaline phosphatase, placental-like 2 (ALPPL2), NM_031313, which is incorporated by reference herein), isoform 2 (alkaline phosphatase, placental (ALPP), NM_001632, which is incorporated by reference herein), and isoform 3 (alkaline phosphatase, intestinal (ALPLI), NM_001631, which is incorporated by reference herein), that can also be expressed on cell surfaces via a GPI-anchor. […] The transduction assay described above was repeated with the three isoforms. HEK 293T cells were transfected via calcium phosphate transfection with a plasmid expressing ALPL, isoform 1 of ALPL, isoform 2 of ALPL, isoform 3 of ALPL, an AAVR positive control, or a pCMV6 negative control. At 24 hours post-transfection, the HEK 293T cells expressing the ALPL receptor were transduced with an AAV particle comprising the TTM-001 capsid variant or the TTM-002 capsid variant, expressing a Luc2-GFP payload. At 24-hours post-transduction, luciferase activity (RLU) was measured to quantify AAV cellular transduction.
To determine if deletion of the endoplasmic reticulum (ER) localization signal of ALPL affected transduction of the TTM-001 and TTM-002 capsid variants, HEK 293T cells were transfected via calcium phosphate transfection with a plasmid expressing ALPL, ALP with a deletion of the ER localization signal (ALPL transcript variant 2 that lacks the ER signal (NM_001127501, which is incorporated by reference herein)), or a pCMV6 negative control. At 24 hours post-transfection, the HEK 293T cells expressing the ALPL receptor were transduced with an AAV particle comprising the TTM-001 capsid variant, the TTM-002 capsid variant, or an AAV9 capsid control, expressing a GFP payload. At 24-hours post-transduction, luciferase activity (RLU) was measured to quantify AAV cellular transduction. Data was normalized to fold change in luciferase activity (RLU) compared to the pCMV6 control.
To determine if the TTM-001 and TTM-002 capsid variants could bind to both the human ALPL protein (NM_000478.6, which is incorporated by reference herein) and the mouse ALPL ortholog (NM_001287172.1, which is incorporated by reference herein), HEK 293T cells were transfected via calcium phosphate transfection with a plasmid expressing human ALPL, the murine ortholog of ALPL, or a pCMV6 negative control. At 24 hours post-transfection, the HEK 293T cells expressing the ALPL receptor were transduced with an AAV particle comprising the TTM-001 capsid variant, the TTM-002 capsid variant, or an AAV9 control capsid protein, expressing a Luc2-GFP payload. At 24-hours post-transduction, luciferase activity (RLU) was measured to quantify AAV cellular transduction.
AAV entry factor involved in AAV transduction), or a pCMV6 negative control.

[2] = Table 33, Cells transfected with pCMV6 (reference)
[3] = Table 34, Cells transfected with pCMV6 (reference)
[4] = TTM-002 on chip approximately 6300RU

Molecule	binding to ALPL by SPR (His-tagged ALPL)	Luciferase Activity (fold change relative to pCMV6 transfected cells) ([1]; Table 27) [fold]	Luciferase Activity (RLU) [1]	Fold change in luciferase activity relative to the pCMV6 control cells [1, 2] [fold]	Fold change in luciferase activity relative to the pCMV6 control cells [1, 3] [fold]	Luciferase Activity (fold change relative to pCMV6 transfected cells) ([1]; Table 28) [fold]	Fold change in luciferase activity relative to the pCMV6 control cells ([1]; Table 35, Receptor pCMV6 (reference)) [fold]	koff (His-tagged ALPL; Density of TTM-002 127 RU on chip) [s⁻¹]	koff (His-tagged ALPL; Density of TTM-002 2400 RU on chip) [s⁻¹]	koff (His-tagged ALPL; Density of TTM-002 6300 RU on chip) [s⁻¹]	koff (His-tagged ALPL; Density of TTM-002 6680 RU on chip) [s⁻¹]	koff (His-tagged ALPL; [4]) [s⁻¹]	kon (His-tagged ALPL; [4]) [M⁻¹ s⁻¹]
AAV9: wild-type AAV9 control capsid [reference compound]	no binding												
B1		1	5,212 RLU	1	1								
B2	capable of directly and specifically binding to ALPL in a dose dependent manner	1	2,894 RLU	1	1	1	1.0	0.0051	0.00185	0.00127	0.00116	0.00127	32000
